The record followed here is patent US20250345423A1 (IMUNEXUS THERAPEUTICS, published 2025).

For assay [1], the target named is T1, CD80 expressed on Raji cells (UniProt P33681 35-288).
T1 construct: whole, on cells; also called Raji cells expressing CD80; B7-1 on Raji cells
T1 sequence (looked up): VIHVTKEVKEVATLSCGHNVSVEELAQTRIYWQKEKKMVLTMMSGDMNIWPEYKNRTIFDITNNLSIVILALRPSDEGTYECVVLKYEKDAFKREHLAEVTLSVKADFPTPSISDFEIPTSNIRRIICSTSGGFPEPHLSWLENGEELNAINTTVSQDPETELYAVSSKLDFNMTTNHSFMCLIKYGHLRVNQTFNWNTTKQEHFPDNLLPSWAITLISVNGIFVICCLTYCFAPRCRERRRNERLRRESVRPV
Description: cell-to-cell binding: Raji cells on transfected bMSCs (summary of Example 2). The protocol:
The required number of Raji cells (100,000 cells for each assay well) were centrifuged and resuspended in an appropriate volume of MSCBM (100 μl/100,000 cells), and the cell suspension was added to the wells containing bMSCs. Plates were incubated for 1 h at RT before the wells were very carefully washed 3× with D-PBS. In-cell ELISA assays were carried out two days after transfection with CTLA-4 BD plasmid DNA. The cell supernatant was aspirated, cells were washed 3× with 300 μl D-PBS (137 mM NaCl, 8.1 mM Na₂HPO₄, 2.68 mM KCl, 1.47 mM KH₂PO₄, 0.9 mM CaCl₂), 0.5 mM MgCl₂), and then fixed by adding 50 μl of a formaldehyde solution (4% in PBS, for example Santa Cruz Biotechnology, Cat. No. SANTS-281692). After 15-20 minutes of incubation at RT, the solution was aspirated and cells were washed 3× with 300 μl D-PBS-T (D-PBS containing 0.05% (w/V) Tween-20). Wells were blocked by incubating with 300 μl of 5% skim milk in D-PBS-T for 1 h at RT. The blocking buffer was aspirated and wells were washed with 3×300 μl D-PBS-T before adding 50 μl of the primary antibody diluted in D-PBS-T (see Table 1 for antibodies and their respective dilutions). […] After 5-15 minutes the reaction was stopped by adding 100 μl 1 M HCl, and absorbance at a wavelength of 450 nm was measured using a micro plate reader. […]

The target in assay [2] is T2, human B7-1 (CD80) protein (Acro Biosystems, B71-H5259) (human, UniProt P33681 35-242).
T2 sequence (looked up): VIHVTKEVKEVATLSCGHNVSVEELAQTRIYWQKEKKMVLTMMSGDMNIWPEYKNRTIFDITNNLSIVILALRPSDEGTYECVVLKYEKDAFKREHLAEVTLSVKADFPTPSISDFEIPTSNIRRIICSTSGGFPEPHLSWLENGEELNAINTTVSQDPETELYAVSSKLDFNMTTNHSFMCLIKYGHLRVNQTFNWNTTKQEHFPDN
Description: in-cell ELISA on transfected bMSCs, anti-CD80 primary antibody, versus control transfection. How it is done: Cells were plated on a 96-well plate at a density of 10,000 cells per well. The in-cell ELISA was performed the following day.
All in-cell ELISA experiments were carried out in 96-well microtiter plates. For assays in which the primary antibody was directed against the ligand of the CTLA-4 binding domain, the supernatant of cells expressing the CTLA-4 BD was aspirated, replaced with medium containing the ligand (rhSOST (R&D systems 1406-ST-025/CF) or B7-1/CD80 protein (Acro Biosystems, B71-H5259) at varying concentrations, and incubated for 1 h at RT. For assays in which binding of B-lymphocytes to cells expressing the CTLA-4 binding domain was to be assessed, cells from a lymphoblast-like cell line (Raji cells) were used. The required number of Raji cells (100,000 cells for each assay well) were centrifuged and resuspended in an appropriate volume of MSCBM (100 μl/100,000 cells), and the cell suspension was added to the wells containing bMSCs. Plates were incubated for 1 h at RT before the wells were very carefully washed 3× with D-PBS. In-cell ELISA assays were carried out two days after transfection with CTLA-4 BD plasmid DNA. […]
For orientation: ELISA stands for enzyme-linked immunosorbent assay.

Assay [3] concerns the target T3, human recombinant Sclerostin (rhSOST, R&D systems 1406-ST-025/CF) (human, UniProt Q9BQB4 24-213).
T3 sequence (looked up): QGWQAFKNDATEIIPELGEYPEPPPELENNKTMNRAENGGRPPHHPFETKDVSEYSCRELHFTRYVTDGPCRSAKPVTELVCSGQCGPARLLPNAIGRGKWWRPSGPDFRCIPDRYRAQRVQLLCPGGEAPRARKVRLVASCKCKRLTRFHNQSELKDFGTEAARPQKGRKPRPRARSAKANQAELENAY
Description: in-cell ELISA on transfected HEK293 cells, anti-SOST primary antibody, versus mock transfection. How it is done: The remainder of the protocol was identical for both cell types. One day before transfection, cells were plated on 96-well microtiter plates that had previously been coated with Poly-D-Lysine (PDL, Gibco, Cat. No. A38904-01) according to the manufacturer's instructions. The ideal cell density for subsequent transfection and in-cell ELISA was empirically determined to be 10,000 cells per well at time of seeding. The day after plating, cells were transfected using the Lipofectamine 3000 transfection kit (Invitrogen, Cat. No. L3000-008). The ideal amount of DNA and Lipofectamine per well was empirically determined to be 100 ng (HEK cells) or 200 ng (CHO cells) of DNA and 0.15 μl of Lipofectamine 3000. Transfections were performed according to the manufacturer's instructions.
All in-cell ELISA experiments were carried out in 96-well microtiter plates. […]

B1: BD_B7 (CTLA-4 binding domain directed against B7.1 (CD80)), displayed on the cell surface from the display vector (designed binder)
chain: KAMHVAQPAVVLASSRGIASFVCEYASPGKYTEVRVTVLRQADSQVTEVCAATYMTGNELTFLDDSICTGTSSGNQVNLTIQGLRAMDTGLYICKVELMYPPPYYLGIGNGTQIYVIDPEPSPDSNAGGGGSGGGGSGGGGSAEQKLISEEDLNAVGQDTQEVIVVPHSLPFKVVVISAILALVVLTIISLIILIMLWQKKPR
notes: also called CTLA-4 BD directed against B7-1
Turning to B1, the binding result in assay [1] and in assay [2] was “binds” in each case.

B2: BD_SOST (CTLA-4 binding domain directed against human sclerostin), displayed on the cell surface from the display vector (designed binder)
chain: KAMHVAQPAVVLASSRGIASFVCEYTVSWVDMEVRVTVLRQADSQVTEVCAATYWNGRWLTFLDDSICTGTSSGNQVNLTIQGLRAMDTGLYICKVQLDPSWGYYWQGYEGIGNGTQIYVIDPEPSPDSNAGGGGSGGGGSGGGGSAEQKLISEEDLNAVGQDTQEVIVVPHSLPFKVVVISAILALVVLTIISLIILIMLWQKKPR
Take B2: the binding result in assay [3] is “binds”.
